As usually defined, the Kd is the free concentration of one partner at which half of the binding sites on the other are occupied at equilibrium, for simple one-to-one binding. The low end stands for tighter binding, the high end for weaker binding.

One assay has as its target human neutrophils. Briefly: competition of 125I-IL-8 by unlabelled IL-8 on human neutrophils, Scatchard analysis.
For assay [1], the target named is human IL-8 type A receptor (IL8R-A), encoded by clone pRK5B.il8r1.1 (human). In words: competition of 125I-IL-8 by unlabelled IL-8 on COS cells transfected with pRK5B.il8r1.1, Scatchard analysis.

In the case of “recombinant human IL-8 (72 amino acid form, made in E. coli) (from UniProt P10145) (ligand)”, the equilibrium dissociation constant (Kd) was found to be 1.1 nM with human neutrophils and 3.6 nM in assay [1].
